As a reminder, the stoichiometry N is a count of units in the complex or per binding partner.

For assay [1], the target named is tektin B (S. purpuratus (endogenous in sperm flagella)). The experiment in a line: co-sedimentation; Ribbons extracted with 0.5% Sarkosyl and urea (1-3 M; 1.75 M for the stoichiometry) in 10TEAD; the insoluble tektin filaments analysed by SDS-PAGE densitometry (Serva Blue) and immunoblotting. For orientation: A western blot detects proteins with antibodies after separation by electrophoresis.

Assay [2] deals with tektin A (S. purpuratus (endogenous in sperm flagella)). The description is as above.

In the case of tektin C (natural protein), the stoichiometry N in assay [1] and in assay [2] was 1 throughout. tektin B (natural protein) had a stoichiometry N in assay [2] of 1.

The values are drawn from publication PMC4067180.
